Starred links: 1 amine or outer side, 2 acyl side, 3 side chain; linkers in the order of their positions; H or OH if unused. Positions of bridges follow the written chain, without caps; N, C: chain ends. Non-standard residues stand in square brackets, D forms with d. Primed or numbered codes have the meaning given here. PyrS2(3) = (S)-3-amino-1-((pent-4-en-1-yloxy)carbonyl)pyrrolidine-3-carboxylic acid, stapling residue, C=CCCCOC(=O)N1CC[C@@](N[*:1])(C(=O)[*:2])C1; PyrS2″ = (S)-3-amino-1-((pent-4-en-1-yloxy)carbonyl)pyrrolidine-3-carboxylic acid (stapling residue), C=CCCCOC(=O)N1CC[C@@](N[*:1])(C(=O)[*:2])C1; B5(24) = 2-amino-2-(pent-4-en-1-yl)hept-6-enoic acid, 2,2-bis(4-pentenyl)glycine (stitching residue), C=CCCCC(CCCC=C)(N[*:1])C(=O)[*:2]; B5(4) = 2,2-bis(4-pentenyl)glycine = 2-amino-2-(pent-4-en-1-yl)hept-6-enoic acid (stitching residue), C=CCCCC(CCCC=C)(N[*:1])C(=O)[*:2]; B5(20) = 2-amino-2-(pent-4-en-1-yl)hept-6-enoic acid = bis(4-pentenyl)glycine, stitching residue, C=CCCCC(CCCC=C)(N[*:1])C(=O)[*:2]; TfeGA = (S)-2-amino-3-((carboxymethyl)(2,2,2-trifluoroethyl)amino)propanoic acid, O=C([C@H](CN(CC(=O)[*:3])CC(F)(F)F)N[*:1])[*:2]; PyrS2 = (S)-3-amino-1-((pent-4-en-1-yloxy)carbonyl)pyrrolidine-3-carboxylic acid, C=CCCCOC(=O)N1CC[C@@](N[*:1])(C(=O)[*:2])C1; MePpzAsn = (S)-2-amino-4-(4-methylpiperazin-1-yl)-4-oxobutanoic acid, CN1CCN(C(=O)C[C@H](N[*:1])C(=O)[*:2])CC1; F2PipNva = (S)-2-amino-5-(4,4-difluoropiperidin-1-yl)pentanoic acid, O=C([C@H](CCCN1CCC(F)(F)CC1)N[*:1])[*:2]; MorphAsn = (S)-2-amino-4-morpholino-4-oxobutanoic acid, O=C(C[C@H](N[*:1])C(=O)[*:2])N1CCOCC1; B5(3) = 2,2-bis(4-pentenyl)glycine (stitching residue), C=CCCCC(CCCC=C)(N[*:1])C(=O)[*:2]; B5″ = 2,2-bis(4-pentenyl)glycine, stitching residue, C=CCCCC(CCCC=C)(N[*:1])C(=O)[*:2]; B5 = 2-amino-2-(pent-4-en-1-yl)hept-6-enoic acid, C=CCCCC(CCCC=C)(N[*:1])C(=O)[*:2]; Nva(5-morpholino) = N[C@@H](CCCN1CCOCC1)C(=O)O; Phe(3-COOH) = N[C@@H](Cc1cccc(C(=O)O)c1)C(=O)O; 2F3MeF = Cc1cccc(C[C@H](N[*:1])C(=O)[*:2])c1F; Phe(2-CONH2) = NC(=O)c1ccccc1C[C@H](N)C(=O)O; Phe(3-CN) = N#Cc1cccc(C[C@H](N)C(=O)O)c1; Phe(4-CN) = N#Cc1ccc(C[C@H](N)C(=O)O)cc1; Phe(2-CN) = N#Cc1ccccc1C[C@H](N)C(=O)O; Phe(2-Cl) = N[C@@H](Cc1ccccc1Cl)C(=O)O; Bta = N[C@@H](Cc1csc2ccccc12)C(=O)O; Lys(iPr) = CC(C)NCCCC[C@H](N)C(=O)O; αAllylPro = C=CC[C@@]1(C(=O)O)CCCN1; tBuAla = CC(C)(C)C[C@H](N)C(=O)O; 3Thi = N[C@@H](Cc1ccsc1)C(=O)O; S8 = C=CCCCCCC[C@](C)(N)C(=O)O
B1: I-1141 (peptide)
peptide: Ac-[αAllylPro]DF[B5(24)]DDAAFS[PyrS2″][Phe(2-Cl)][Bta]T-NH2
modifications: staple 1-4, 4-11
notes: Stapled (stitched) peptide composition; olefin isomer not specified
B2: I-1144 (peptide)
peptide: Ac-[αAllylPro]DF[B5(24)]DDAAFS[PyrS2″][Phe(2-Cl)][Bta]L-NH2
modifications: staple 1-4, 4-11
notes: as for B1
B3: I-507 (peptide)
peptide: XDAXDEAAFQXFXT
modifications: not fully specified; Ac-PL3-Asp-Ala-B5-Asp-Glu-Ala-Ala-Phe-Gln-S8-Phe-BztA-Thr-NH2; stapled by olefin metathesis (PL3-B5 and B5-S8)
B4: I-528 (peptide)
peptide: XDIXDEAAFQXFXQ
modifications: not fully specified; Ac-PL3-Asp-Ile-B5-Asp-Glu-Ala-Ala-Phe-Gln-S8-2OMeF-BztA-Gln-NH2; stapled by olefin metathesis (PL3-B5 and B5-S8)
B5: I-527 (peptide)
peptide: XDIXDEAAFQXFXQ
modifications: not fully specified; Ac-PL3-Asp-Ile-B5-Asp-Glu-Ala-Ala-Phe-Gln-S8-2OMeF-BztA-Gln-NH2; stapled by olefin metathesis (PL3-B5 and B5-S8)
B6: I-602 (peptide)
peptide: XDIXDEAAFQXFXQ
modifications: N-terminal 2PyPrpc cap; PL3 (pos 1), B5 (pos 4), S8 (pos 11) stapled (PL3-B5 and B5-S8); BztA (pos 13); C-terminal NH2
notes: Stapled peptide; also called 2PyPrpc-PL3-Asp-Ile-B5-Asp-Glu-Ala-Ala-Phe-Gln-S8-Phe-BztA-Gln-NH2
B7: I-617 (peptide)
peptide: XDLXDEAAFTXFXH
modifications: not fully specified; N-terminal Ac; PL3 (pos 1), B5 (pos 4), S8 (pos 11) stapled (PL3-B5 and B5-S8); BztA (pos 13); C-terminal NH2
notes: Stapled peptide; also called Ac-PL3-Asp-Leu-B5-Asp-Glu-Ala-Ala-Phe-Thr-S8-Phe-BztA-His-NH2
B8: I-623 (peptide)
peptide: XDLXDEAAFTXFXQ
modifications: not fully specified; N-terminal Ac; PL3 (pos 1), B5 (pos 4), S8 (pos 11) stapled (PL3-B5 and B5-S8); BztA (pos 13); C-terminal NH2
notes: Stapled peptide; also called Ac-PL3-Asp-Leu-B5-Asp-Glu-Ala-Ala-Phe-Thr-S8-Phe-BztA-Gln-NH2
B9: I-622 (peptide)
peptide: XDLXDEAAFTXFXQ
modifications: not fully specified; N-terminal Ac; PL3 (pos 1), B5 (pos 4), S8 (pos 11) stapled (PL3-B5 and B5-S8); BztA (pos 13); C-terminal NH2
notes: as for B8
B10: I-601 (peptide)
peptide: XDIXDEAAFQXFXQ
modifications: N-terminal Bnc cap; PL3 (pos 1), B5 (pos 4), S8 (pos 11) stapled (PL3-B5 and B5-S8, olefin metathesis); BztA (pos 13); C-terminal NH2
notes: Stapled peptide; also called Bnc-PL3-Asp-Ile-B5-Asp-Glu-Ala-Ala-Phe-Gln-S8-Phe-BztA-Gln-NH2
B11: I-603 (peptide)
peptide: Ac-[αAllylPro]DI[B5]DQAAFQ[S8]F[Bta]Q-NH2
modifications: staple 1-4, 4-11
notes: Stapled peptide; also called Ac-PL3-Asp-Ile-B5-Asp-Gln-Ala-Ala-Phe-Gln-S8-Phe-BztA-Gln-NH2
B12: I-613 (peptide)
peptide: XDIXDRAAFQXFXQ
modifications: not fully specified; N-terminal Ac; PL3 (pos 1), B5 (pos 4), S8 (pos 11) stapled (PL3-B5 and B5-S8); BztA (pos 13); C-terminal NH2
notes: Stapled peptide; also called Ac-PL3-Asp-Ile-B5-Asp-Arg-Ala-Ala-Phe-Gln-S8-Phe-BztA-Gln-NH2
B13: I-614 (peptide)
peptide: XDIXDRAAFQXFXQ
modifications: not fully specified; N-terminal Ac; PL3 (pos 1), B5 (pos 4), S8 (pos 11) stapled (PL3-B5 and B5-S8); BztA (pos 13); C-terminal NH2
notes: as for B12
B14: I-618 (peptide)
peptide: XDLXDEAAFTXFXH
modifications: not fully specified; N-terminal Ac; PL3 (pos 1), B5 (pos 4), S8 (pos 11) stapled (PL3-B5 and B5-S8); BztA (pos 13); C-terminal NH2
notes: as for B7

These binders were tested against T1, B-cat-Halo (UniProt P35222 1-781) (assay: cell-based or functional assay).
T1 sequence (looked up): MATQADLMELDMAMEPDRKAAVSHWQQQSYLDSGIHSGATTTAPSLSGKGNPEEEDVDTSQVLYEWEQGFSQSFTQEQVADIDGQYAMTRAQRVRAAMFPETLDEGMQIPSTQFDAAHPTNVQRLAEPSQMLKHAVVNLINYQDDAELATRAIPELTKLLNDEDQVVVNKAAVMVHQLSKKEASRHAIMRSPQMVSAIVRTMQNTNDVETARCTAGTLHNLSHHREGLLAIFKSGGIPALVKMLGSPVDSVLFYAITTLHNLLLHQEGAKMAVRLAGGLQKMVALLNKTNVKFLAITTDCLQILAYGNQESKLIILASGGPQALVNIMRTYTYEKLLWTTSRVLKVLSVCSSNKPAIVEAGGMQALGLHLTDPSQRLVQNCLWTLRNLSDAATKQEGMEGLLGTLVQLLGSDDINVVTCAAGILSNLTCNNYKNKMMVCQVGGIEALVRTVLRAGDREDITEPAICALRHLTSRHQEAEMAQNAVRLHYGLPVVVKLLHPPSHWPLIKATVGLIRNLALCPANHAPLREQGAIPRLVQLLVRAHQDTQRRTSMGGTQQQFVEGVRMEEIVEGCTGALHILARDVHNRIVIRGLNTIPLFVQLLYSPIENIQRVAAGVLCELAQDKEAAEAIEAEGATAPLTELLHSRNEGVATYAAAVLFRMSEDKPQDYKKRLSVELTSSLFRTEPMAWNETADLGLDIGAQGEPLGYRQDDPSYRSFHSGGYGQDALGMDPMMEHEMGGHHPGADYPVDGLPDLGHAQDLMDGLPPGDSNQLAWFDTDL

Row | Binder | NanoBRET Abs IC50 [nM]
1 | Ac-[αAllylPro]D[tBuAla][B5(3)]D[TfeGA]AAFT[PyrS2″][Phe(2-Cl)][Bta][MePpzAsn]-NH2 (staple 1-4, 4-11) [I-1611] | 9800
2 | Ac-[αAllylPro]D[tBuAla][B5(3)]D[TfeGA]AAFT[PyrS2][Phe(2-Cl)][Bta][Nva(5-morpholino)]-NH2 (staple 1-4, 4-11) [I-1609] | 6700
3 | Ac-[αAllylPro]D[tBuAla][B5(4)]D[TfeGA]AAFT[PyrS2][Phe(2-Cl)][Bta][F2PipNva]-NH2 (staple 1-4, 4-11) [I-1607] | 11900
4 | Ac-[αAllylPro]D[tBuAla][B5(3)]D[Phe(3-COOH)]AAFL[PyrS2][2F3MeF][Bta][Nva(5-morpholino)]-NH2 (staple 1-4, 4-11) [I-1610] | 4100
5 | Ac-[αAllylPro]N[tBuAla][B5(4)]DT[Lys(iPr)]AFN[PyrS2]F[Bta]Q-NH2 (staple 1-4, 4-11) [I-1602] | > 20000
6 | Ac-[αAllylPro]D[tBuAla][B5(3)]D[TfeGA]AAFT[PyrS2″][Phe(2-Cl)][Bta][MorphAsn]-NH2 (staple 1-4, 4-11) [I-1613] | 5200
7 | Ac-[αAllylPro]D[tBuAla][B5(4)]D[Phe(3-COOH)]AAFL[PyrS2][2F3MeF][Bta][F2PipNva]-NH2 (staple 1-4, 4-11) [I-1608] | 15100
8 | Ac-[αAllylPro]D[tBuAla][B5(3)]D[Phe(3-COOH)]AAFL[PyrS2″][2F3MeF][Bta][MorphAsn]-NH2 (staple 1-4, 4-11) [I-1614] | 6400

The binders below were run against T2, B-cat-Halo (beta-catenin HaloTag construct expressed in HEK293 cells) (UniProt P35222 1-781) (assay: cell-based or functional assay).
T2 sequence (looked up): T1 sequence (looked up)

Row | Binder | NanoBRET Abs IC50 [nM]
9 | Ac-[αAllylPro]D[tBuAla][B5″]DDAA[Phe(2-CN)]L[PyrS2(3)][3Thi][Bta]Q-NH2 (staple 1-4, 4-11) [I-1200] | > 20000
10 | Ac-[αAllylPro]D[tBuAla][B5″]DDAA[Phe(4-CN)]L[PyrS2(3)][3Thi][Bta]Q-NH2 (staple 1-4, 4-11) [I-1202] | 16300
11 | Ac-[αAllylPro]D[tBuAla][B5″]DDAA[Phe(3-CN)]L[PyrS2(3)][3Thi][Bta]Q-NH2 (staple 1-4, 4-11) [I-1201] | 19600

What follows are binders tested against T3, Bcat-Halo (UniProt P35222 1-781, HaloTag NanoBRET 618 Ligand bound in the assay) (assay: NanoBRET Abs IC50 in HEK293 cells; competitor TCF4-Luc on Bcat-Halo).
T3 construct: Expressed by transfection in HEK293 cells; also called beta-catenin HaloTag NanoBRET construct; not shown: HaloTag
T3 sequence (looked up): T1 sequence (looked up)

Row | Binder | IC50 [nM]
12 | B1 | 27300
13 | B2 | 32800

The binders below were run against T4, full-length beta-Catenin (Uniprot ID P35222) (Homo sapiens (Human), UniProt P35222 1-781) (assay: FP competition: full-length beta-catenin 10 nM + 5FAM-TCF4(10-53) 10 nM).
T4 construct: also called bCat; B-Catenin
T4 sequence: T1 sequence (looked up)
Protocol: The plate was incubated protected from light for 60 minutes at 20° C. prior to read. Reads were performed on a CLARIOstar plate reader (BMG Labtech) in duplicate, and data were fitted to a 1:1 binding model with hill slope using an in-house script. All provided concentrations are final concentrations.

Row | Binder | IC50 [nM]
14 | B3 | 192
15 | B4 | 63
16 | B5 | 98
17 | Ac-[αAllylPro]DA[B5(20)]DEAAFQ[S8]F[Bta]T-NH2 (staple 1-4, 4-11; also: later-eluting HPLC peak of staple isomers) [I-508] | 73
18 | Ac-[αAllylPro]DA[B5(20)]DEAAFN[S8][Phe(2-CONH2)][Bta]H-NH2 (staple 1-4, 4-11, Stapled peptide composition) [I-513] | 143

Each binder was assayed against T5, full-length beta-Catenin (Uniprot ID P35222) (Homo sapiens (Human), UniProt P35222 1-781) (assay: fluorescence polarization competition; full-length beta-catenin with 5FAM-TCF4(10-53) probe as competitor).
T5 construct: The assay text says full-length; also called bCat; B-Catenin
T5 sequence: T1 sequence (looked up)
How it was run: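 Readings followed a light-protected 60-minute incubation at 20° C. Each read was done in duplicate. Curves were fit with a 1:1 binding model including hill slope, and stated concentrations are final.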

Row | Binder | IC50 [nM]
19 | B6 | 3150
20 | B7 | 253
21 | B8 | 103
22 | B9 | 230
23 | B10 | 419
24 | B11 | 392
25 | B12 | 1630
26 | B13 | 1140
27 | B14 | 135

From patent US20240116985A1 (published 2024)
